Values of other authors in PMC11266353, “Synthesis of a highly thermostable insulin by phenylalanine conjugation at B29 Lysine” (Communications Chemistry, 2024).

Set-up: method as in Protein J., 2023, 42, 383
Conditions: ref Protein J., 2023, 42, 383

Modified insulin: insulin analog reported in Protein J., 2023, 42, 383: tri-acetylated at Gly A1, Phe B1 and Lys B29
Melting temperature: 72.5 °C
